In patent publication US20160340403A1 (published 2016):

Experiments:
[1] = molecular target: PE-conjugated HLA-A*02:01/MART1 26-35 heteroclitic multimer (Proimmune) (human); assay: structural avidity: flow cytometry, graded A2/MART1 multimer on Jurkat76 transfectants without CD8
[2] = molecular target: PE-conjugated HLA-A*02:01/MART1 26-35 heteroclitic multimer (Proimmune) (human); assay: structural avidity: flow cytometry, graded A2/MART1 multimer on Jurkat76/CD8αβ transfectants
[3] = molecular target: HLA-A*02:01 presenting MART1 27-35 peptide (…) on peptide-pulsed T2 cells (human); assay: cell-based or functional assay
[4] = molecular target: MART1 peptide on HLA-A*02:01 (human); assay: IL-2 ELISPOT; Jurkat76/CD8αβ transfectants; T2 cells pulsed with graded concentrations of MART1 27-35 peptide; full-length, on cells
[5] = molecular target: MART1 peptide on HLA-A*02:01 (human); assay: staining with graded concentrations of A2/MART1 multimer; Jurkat76/CD8αβ transfectants; full-length, on cells
[6] = molecular target: MART1 peptide on HLA-A*02:01 (human); assay: IL-2 ELISPOT; Jurkat76 transfectants without CD8; T2 cells pulsed with graded concentrations of MART1 27-35 peptide; full-length, on cells
[7] = molecular target: MART1 peptide on HLA-A*02:01 (human); assay: staining with graded concentrations of A2/MART1 multimer; Jurkat76 transfectants without CD8; full-length, on cells
[8] = molecular target: T1, WT1 peptide on HLA-A*24:02 (human, heteroclitic peptide as printed; the natural WT1 235-243 residues are not given); assay: cytokine release
T1 peptide: CYTWNQMNL

[9] = molecular target: MART1 peptide on HLA-A*02:01 (human); assay: staining with graded concentrations of A2/MART1 multimer; Jurkat76/CD8αβ transfectants; full-length, on cells; settings: heteroclitic peptide, residues not given
[10] = molecular target: MART1 peptide on HLA-A*02:01 (human); assay: staining with graded concentrations of A2/MART1 multimer; Jurkat76 transfectants without CD8; full-length, on cells; settings: heteroclitic peptide, residues not given
[11] = chains Valpha:beta TRBV27 TRBJ1-2 CDR3
[12] = chains Valpha:beta TRBV27 TRBJ2-7 CDR3

## A2/MART1-specific TCR, clone DMF5
[1]
  EC50: 0.03 µg/mL
[2]
  EC50: 0.02 µg/mL
[3]
  Functional avidity w/CD8 EC50 (IL-2 ELISPOT, peptide-pulsed T2 cells): 330 nM
  Functional avidity w/o CD8 EC50 (IL-2 ELISPOT, peptide-pulsed T2 cells): 1400 nM
  Functional avidity with CD8 EC50 (IL-2 ELISPOT, peptide-pulsed T2 cells): 0.102 µg/mL
  Functional avidity without CD8 EC50 (IL-2 ELISPOT, peptide-pulsed T2 cells): 0.363 µg/mL

## DMF5 TCR
[4]
  EC50 of peptide: 330 nM
[5]
  EC50 of multimer (structural avidity): 0.02 µg/mL
[6]
  EC50 of peptide: 1400 nM
[7]
  EC50 of multimer (structural avidity): 0.03 µg/mL

B1: Clone T53 (T53 TCRα with TAK1β) (TCR, V domains shown)
Valpha: EDKVVQSPLSLVVHEGDTVTLNCSYEVTNFRSLLWYKQEKKAPTFLFMLTSSGIEKKSGRLSSILDKKELFSILNITATQTGDSAVYLCAVITGGTSYGKLTFGQGTILTVHP
Vbeta: LAGVTQTPRYLIKTRGQQVTLSCSPISGHRSVSWYQQTPGQGLQFLFEYFSETQRNKGNFPGRFSGRQFSNSRSEMNVSTLELGDSALYLCASSLGWRETYNEQFFGPGTRLTVL
[8]
  binding result: recognises

B2: Clone A262 (A262 TCRα with TAK1β) (TCR, V domains shown)
Valpha: EDKVVQSPLSLVVHEGDTVTLNCSYEVTNFRSLLWYKQEKKAPTFLFMLTSSGIEKKSGRLSSILDKKELFSILNITATQTGDSATYLCAVQNAGGTSYGKLTFGQGTILTVHP
Vbeta: LAGVTQTPRYLIKTRGQQVTLSCSPISGHRSVSWYQQTPGQGLQFLFEYFSETQRNKGNFPGRFSGRQFSNSRSEMNVSTLELGDSALYLCASSLGWRETYNEQFFGPGTRLTVL
[8]
  binding result: recognises

B3: Clone T243 (T243 TCRα with TAK1β) (TCR, V domains shown)
Valpha: EDKVVQSPLSLVVHEGDTVTLNCSYEVTNFRSLLWYKQEKKAPTFLFMLTSSGIEKKSGRLSSILDKKELFSILNITATQTGDSAVYLCAVLTQTGANNLFFGTGTRLTVIP
Vbeta: LAGVTQTPRYLIKTRGQQVTLSCSPISGHRSVSWYQQTPGQGLQFLFEYFSETQRNKGNFPGRFSGRQFSNSRSEMNVSTLELGDSALYLCASSLGWRETYNEQFFGPGTRLTVL
[8]
  binding result: recognises

B4: Clone T262 (T262 TCRα with TAK1β) (TCR, V domains shown)
Valpha: EDQVTQSPEALRLQEGESSSLNCSYTVSGLRGLFWYRQDPGKGPEFLFTLYSAGEEKEKERLKATLTKKESFLHITAPKPEDSATYLCAVQALRNNAGNNRKLIWGLGTSLAVNP
Vbeta: LAGVTQTPRYLIKTRGQQVTLSCSPISGHRSVSWYQQTPGQGLQFLFEYFSETQRNKGNFPGRFSGRQFSNSRSEMNVSTLELGDSALYLCASSLGWRETYNEQFFGPGTRLTVL
[8]
  binding result: recognises

B5: Clone 1086 (SIG35α with clone 1086 TCRβ) (protein)
chain 1: QKEVEQNSGPLSVPEGAIASLNCTYSDRGSQSFFWYRQYSGKSPELIMFIYSNGDKEDGRFTAQLNKASQYVSLLIRDSQPSDSATYLCAVSIGFGNVLHCGSGTQVIVLP
chain 2: CASSLHGPGGYTF
[9]; [11]
  EC50 of multimer (structural avidity): 0.01 µg/mL
[10]; [11]
  EC50 of multimer (structural avidity): 0.04 µg/mL

B6: Clone 788 (SIG35α with clone 788 TCRβ) (protein)
chain 1: QKEVEQNSGPLSVPEGAIASLNCTYSDRGSQSFFWYRQYSGKSPELIMFIYSNGDKEDGRFTAQLNKASQYVSLLIRDSQPSDSATYLCAVSIGFGNVLHCGSGTQVIVLP
chain 2: CASGPSYEQYF
[9]; [12]
  EC50 of multimer (structural avidity): 0.01 µg/mL
[10]; [12]
  EC50 of multimer (structural avidity): 0.05 µg/mL

B7: Clone 523 (SIG35α with clone 523 TCRβ) (protein)
chain 1: QKEVEQNSGPLSVPEGAIASLNCTYSDRGSQSFFWYRQYSGKSPELIMFIYSNGDKEDGRFTAQLNKASQYVSLLIRDSQPSDSATYLCAVSIGFGNVLHCGSGTQVIVLP
chain 2: CASGSYEQYF
[9]; [12]
  EC50 of multimer (structural avidity): 0.3 µg/mL
